Test results reported in patent US20250109209A1 (ABSCI, published 2025).
Substitutions are numbered along the chain they refer to. Read-outs that look alike come from different tables or passages of the source. One block for each binder: values may come before it.

Key:
human TL1A [1] = biological target: T1, human TL1A (human, UniProt O95150 72-251); assay: SPR, mAb format, average
T1 construct: Antigen in SPR and ELISA; Also used here for places that print only 'TL1A' and for endogenous TL1A in human whole blood; also called TNFSF15
T1 sequence (looked up): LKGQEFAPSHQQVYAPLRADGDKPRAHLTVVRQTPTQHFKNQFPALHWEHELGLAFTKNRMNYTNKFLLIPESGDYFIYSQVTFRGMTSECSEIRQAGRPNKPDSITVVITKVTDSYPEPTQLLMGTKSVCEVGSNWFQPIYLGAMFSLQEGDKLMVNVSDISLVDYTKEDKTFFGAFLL

mouse TL1A = biological target: T2, mouse TL1A (mouse, UniProt Q5UBV8 76-252, limits assumed); assay: SPR, mAb format, average
T2 sequence (looked up): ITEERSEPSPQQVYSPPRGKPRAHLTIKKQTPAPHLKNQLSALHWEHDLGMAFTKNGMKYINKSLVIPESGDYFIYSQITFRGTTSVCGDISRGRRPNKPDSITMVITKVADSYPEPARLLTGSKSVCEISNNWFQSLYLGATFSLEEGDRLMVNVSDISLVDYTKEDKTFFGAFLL

human TL1A [2] = biological target: T1, human TL1A; assay: SPR, mAb format, average; remark: listed apart in the source
Cyno TL1A = biological target: T3, Cyno TL1A (cyno, UniProt G7PRK8 72-251); assay: SPR, mAb format, average
T3 sequence: T1 sequence (looked up) with F39L, I78V

FcRn = biological target: T4, FcRn (UniProt P55899 24-297; P61769 21-119); assay: SPR, mAb format, FcRn at pH 6.0, average
T4 construct: also called neonatal receptor

human TL1A [3] = biological target: T1, human TL1A; assay: SPR, mAb format, average; remark: listed apart in the source

- Kd (human TL1A [1]): 0.296 nM
- Kd (mouse TL1A): 3810 nM
- Kd (human TL1A [2]): 0.296 nM
- Kd (Cyno TL1A): 0.224 nM
- Kd (FcRn): 19.8 nM
- Kd (human TL1A [3]): 0.296 nM
B6: Antibody 14 (mAb format) (antibody, human IgG1, kappa, N297A)
heavy: QVQLQESGPGLVRPSQTLSLTCTVSGLDPDDTYMHWVRQRPGRGLEWMGRIEPAGGHTKYNPSLKSRVTITRDTSKNQVSLRLSSVTAADTAVYYCVISGGLPDVWGQGSLVTVSSASTKGPSVFPLAPSSKSTSGGTAALGCLVKDYFPEPVTVSWNSGALTSGVHTFPAVLQSSGLYSLSSVVTVPSSSLGTQTYICNVNHKPSNTKVDKKVEPKSCDKTHTCPPCPAPELLGGPSVFLFPPKPKDTLMISRTPEVTCVVVDVSHEDPEVKFNWYVDGVEVHNAKTKPREEQYASTYRVVSVLTVLHQDWLNGKEYKCKVSNKALPAPIEKTISKAKGQPREPQVYTLPPSRDELTKNQVSLTCLVKGFYPSDIAVEWESNGQPENNYKTTPPVLDSDGSFFLYSKLTVDKSRWQQGNVFSCSVLHEALHSHYTQKSLSLSPGK
light: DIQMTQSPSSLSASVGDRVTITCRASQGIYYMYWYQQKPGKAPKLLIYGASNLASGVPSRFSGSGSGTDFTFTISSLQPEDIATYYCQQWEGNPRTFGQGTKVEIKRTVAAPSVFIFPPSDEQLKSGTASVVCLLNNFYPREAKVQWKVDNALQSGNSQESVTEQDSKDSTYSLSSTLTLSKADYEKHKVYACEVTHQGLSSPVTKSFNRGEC
notes: also called high priority lead mAb

- Kd (human TL1A [1]): 0.067 nM
- Kd (mouse TL1A): 162 nM
- Kd (human TL1A [2]): 0.067 nM
- Kd (Cyno TL1A): 0.046 nM
- Kd (FcRn): 17.4 nM
- Kd (human TL1A [3]): 0.067 nM
B7: Antibody 15 (mAb format) (antibody, human IgG1, kappa, N297A)
heavy: B6 heavy with L27F, P29I, D30Q, I98R, V105A
light: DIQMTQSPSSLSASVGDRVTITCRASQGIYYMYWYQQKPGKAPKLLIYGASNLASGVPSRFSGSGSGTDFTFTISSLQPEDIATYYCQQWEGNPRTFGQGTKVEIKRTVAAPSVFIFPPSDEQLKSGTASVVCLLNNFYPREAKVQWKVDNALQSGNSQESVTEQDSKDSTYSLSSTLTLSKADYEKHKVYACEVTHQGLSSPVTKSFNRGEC
notes: as for B6

- Kd (human TL1A [1]): 0.101 nM
- Kd (mouse TL1A): 1720 nM
- Kd (human TL1A [2]): 0.101 nM
- Kd (Cyno TL1A): 0.085 nM
- Kd (FcRn): 20.9 nM
- Kd (human TL1A [3]): 0.101 nM
B10: Antibody 6 (mAb format) (antibody, human IgG1, kappa, N297A)
heavy: B6 heavy with L27F, P29M, D30A, I98R, V105M
light: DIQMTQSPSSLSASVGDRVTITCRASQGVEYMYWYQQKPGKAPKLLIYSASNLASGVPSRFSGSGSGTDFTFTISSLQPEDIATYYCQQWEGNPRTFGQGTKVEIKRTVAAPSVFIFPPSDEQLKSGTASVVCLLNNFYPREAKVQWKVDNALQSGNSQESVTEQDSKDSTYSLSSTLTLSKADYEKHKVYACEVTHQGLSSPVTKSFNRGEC
notes: as for B6

- Kd (human TL1A [1]): 0.38 nM
- Kd (mouse TL1A): 691 nM
- Kd (human TL1A [2]): 0.38 nM
- Kd (Cyno TL1A): 0.123 nM
- Kd (FcRn): 16.5 nM
- Kd (human TL1A [3]): 0.38 nM
B11: Antibody 19 (mAb format) (antibody, human IgG1, kappa, N297A)
heavy: B6 heavy with L27F, P29I, D30T, I98R
light: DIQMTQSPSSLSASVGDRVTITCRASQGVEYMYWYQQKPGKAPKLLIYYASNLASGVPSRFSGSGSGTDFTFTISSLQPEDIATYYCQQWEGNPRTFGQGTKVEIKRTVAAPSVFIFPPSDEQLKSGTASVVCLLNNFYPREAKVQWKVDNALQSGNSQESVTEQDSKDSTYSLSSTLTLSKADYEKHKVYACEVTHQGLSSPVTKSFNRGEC
notes: as for B6

Further lines, the binder ahead of its results:

B1: Antibody 17 (mAb format) (antibody, human IgG1, kappa, N297A)
heavy: B6 heavy with L27F, P29M, D30G, G55A, I98R
light: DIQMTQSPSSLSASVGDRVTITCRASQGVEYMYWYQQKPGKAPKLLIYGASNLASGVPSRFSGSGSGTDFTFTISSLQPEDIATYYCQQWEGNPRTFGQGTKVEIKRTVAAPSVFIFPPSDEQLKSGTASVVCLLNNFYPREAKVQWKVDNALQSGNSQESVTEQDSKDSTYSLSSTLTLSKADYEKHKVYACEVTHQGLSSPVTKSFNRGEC
notes: as for B6
- Kd (human TL1A [1]): 0.172 nM
- Kd (mouse TL1A): 452 nM
- Kd (human TL1A [2]): 0.172 nM
- Kd (Cyno TL1A): 0.099 nM
- Kd (FcRn): 17.4 nM
- Kd (human TL1A [3]): 0.172 nM

B2: Antibody 11 (mAb format) (antibody, human IgG1, kappa, N297A)
heavy: B6 heavy with L27F, P29M, D30G, I98R, L102M
light: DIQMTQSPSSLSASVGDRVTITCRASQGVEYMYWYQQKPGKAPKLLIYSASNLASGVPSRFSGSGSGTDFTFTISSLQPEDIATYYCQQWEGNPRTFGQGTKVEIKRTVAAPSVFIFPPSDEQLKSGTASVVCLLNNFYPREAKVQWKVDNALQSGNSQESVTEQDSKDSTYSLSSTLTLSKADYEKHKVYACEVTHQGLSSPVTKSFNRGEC
notes: as for B6
- Kd (human TL1A [1]): 0.2 nM
- Kd (mouse TL1A): 842 nM
- Kd (human TL1A [2]): 0.2 nM
- Kd (Cyno TL1A): 0.135 nM
- Kd (FcRn): 20.4 nM
- Kd (human TL1A [3]): 0.2 nM

B3: Antibody 18 (mAb format) (antibody, human IgG1, kappa, N297A)
heavy: B6 heavy with L27F, P29M, D30G, I98R, L102M
light: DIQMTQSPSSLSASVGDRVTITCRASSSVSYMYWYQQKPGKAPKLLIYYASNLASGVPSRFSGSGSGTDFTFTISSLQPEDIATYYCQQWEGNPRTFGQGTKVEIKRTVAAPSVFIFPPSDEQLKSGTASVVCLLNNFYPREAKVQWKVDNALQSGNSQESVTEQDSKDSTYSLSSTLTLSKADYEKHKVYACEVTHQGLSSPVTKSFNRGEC
notes: as for B6
- Kd (human TL1A [1]): 0.252 nM
- Kd (mouse TL1A): 397 nM
- Kd (human TL1A [2]): 0.252 nM
- Kd (Cyno TL1A): 0.087 nM
- Kd (FcRn): 16.2 nM
- Kd (human TL1A [3]): 0.252 nM

B4: Antibody 8 (mAb format) (antibody, human IgG1, kappa, N297A)
heavy: B6 heavy with L27F, P29M, D30Q, D31S, I98R
light: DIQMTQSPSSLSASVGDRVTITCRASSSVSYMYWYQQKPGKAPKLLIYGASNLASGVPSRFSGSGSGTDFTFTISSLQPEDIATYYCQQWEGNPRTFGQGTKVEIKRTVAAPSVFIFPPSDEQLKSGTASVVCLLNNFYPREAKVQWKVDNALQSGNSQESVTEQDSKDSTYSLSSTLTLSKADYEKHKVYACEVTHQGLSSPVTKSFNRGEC
notes: as for B6
- Kd (human TL1A [1]): 0.091 nM
- Kd (mouse TL1A): 418 nM
- Kd (human TL1A [2]): 0.091 nM
- Kd (Cyno TL1A): 0.085 nM
- Kd (FcRn): 17.6 nM
- Kd (human TL1A [3]): 0.091 nM

B5: Antibody 12 (mAb format) (antibody, human IgG1, kappa, N297A)
heavy: B6 heavy with L27F, P29I, D30T, I98R
light: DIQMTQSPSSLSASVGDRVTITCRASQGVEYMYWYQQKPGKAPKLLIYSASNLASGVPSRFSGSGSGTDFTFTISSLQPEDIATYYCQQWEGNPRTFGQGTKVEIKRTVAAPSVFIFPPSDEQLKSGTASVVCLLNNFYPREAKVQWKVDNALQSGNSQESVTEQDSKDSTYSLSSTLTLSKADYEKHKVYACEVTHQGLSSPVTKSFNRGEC
notes: as for B6
- Kd (human TL1A [1]): 0.17 nM
- Kd (mouse TL1A): 13100 nM
- Kd (human TL1A [2]): 0.17 nM
- Kd (Cyno TL1A): 0.118 nM
- Kd (FcRn): 19.7 nM
- Kd (human TL1A [3]): 0.17 nM

B8: Antibody 7 (mAb format) (antibody, human IgG1, kappa, N297A)
heavy: B6 heavy with L27F, P29M, D30G, G55A, I98R, V105I
light: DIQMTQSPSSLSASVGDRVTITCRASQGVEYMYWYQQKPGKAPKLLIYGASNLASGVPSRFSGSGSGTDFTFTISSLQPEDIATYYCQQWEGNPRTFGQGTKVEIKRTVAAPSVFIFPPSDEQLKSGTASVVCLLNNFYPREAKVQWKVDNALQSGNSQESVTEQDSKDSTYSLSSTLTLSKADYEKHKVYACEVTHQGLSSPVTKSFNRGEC
notes: as for B6
- Kd (human TL1A [1]): 0.179 nM
- Kd (mouse TL1A): 1270 nM
- Kd (human TL1A [2]): 0.179 nM
- Kd (Cyno TL1A): 0.125 nM
- Kd (FcRn): 19 nM
- Kd (human TL1A [3]): 0.179 nM

B9: Antibody 20 (mAb format) (antibody, human IgG1, kappa, N297A)
heavy: B6 heavy with L27F, P29I, D30Q, G55S, V97A, I98R, L102M, V105M
light: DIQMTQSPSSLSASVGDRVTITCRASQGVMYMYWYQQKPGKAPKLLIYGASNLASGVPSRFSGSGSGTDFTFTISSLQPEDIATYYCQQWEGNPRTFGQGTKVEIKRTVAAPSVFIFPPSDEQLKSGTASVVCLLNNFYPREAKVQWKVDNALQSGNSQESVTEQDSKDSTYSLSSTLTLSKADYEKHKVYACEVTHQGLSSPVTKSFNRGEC
notes: as for B6
- Kd (human TL1A [1]): 0.079 nM
- Kd (mouse TL1A): 391 nM
- Kd (human TL1A [2]): 0.079 nM
- Kd (Cyno TL1A): 0.046 nM
- Kd (FcRn): 16.4 nM
- Kd (human TL1A [3]): 0.079 nM
